Common to all, as to test: Crosslinking/co-immunoprecipitation/mass spectrometry (TMT quantitative proteomics) to identify irisin receptors
Common to all, as to format: binding

For assay [1], the target named is T1, MLO-Y4 cell surface proteins (Mus musculus, UniProt P08249).
T1 construct: endogenous in cells; host or cells: MLO-Y4
T1 sequence (P08249 25-338): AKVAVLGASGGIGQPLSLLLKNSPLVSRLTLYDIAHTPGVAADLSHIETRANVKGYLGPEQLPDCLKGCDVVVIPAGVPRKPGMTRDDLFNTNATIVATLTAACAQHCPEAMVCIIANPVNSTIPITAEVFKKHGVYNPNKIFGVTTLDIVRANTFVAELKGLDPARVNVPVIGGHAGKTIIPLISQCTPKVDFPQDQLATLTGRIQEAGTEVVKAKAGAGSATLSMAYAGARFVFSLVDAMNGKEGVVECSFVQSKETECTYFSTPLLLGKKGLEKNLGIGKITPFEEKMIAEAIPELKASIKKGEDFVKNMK
As to conditions: co-precipitated protein Mdh2 (MDHM_MOUSE). The method in brief:
(§1)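 Mouse MLO-Y4 cells were switched to serum-free FreeStyle medium for 4 h, chilled, then exposed to 10 nM His-tagged irisin (or adipsin as control) for 20 min. Cells were crosslinked with 1.5 mM DTSSP (30 min, ice), and bound proteins were pulled down on Ni-NTA and eluted with 250 mM imidazole. Eluates were separated by SDS-PAGE, trypsin-digested in gel, TMT 6-plex labelled and quantified by MS3-based LC-MS/MS on an Orbitrap Fusion Lumos.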

Assay [2] deals with T2, MLO-Y4 cell surface proteins (Mus musculus, UniProt O35143).
T2 construct: endogenous in cells; host or cells: MLO-Y4
T2 sequence (O35143 26-106): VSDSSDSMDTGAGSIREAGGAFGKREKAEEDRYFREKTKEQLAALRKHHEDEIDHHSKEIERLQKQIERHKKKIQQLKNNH
As to conditions: co-precipitated protein Atpif1 (ATIF1_MOUSE). Put shortly:
as §1

The target of assay [3] is T3, MLO-Y4 cell surface proteins (Mus musculus, UniProt Q3U1J4).
T3 construct: endogenous in cells; host or cells: MLO-Y4
As to conditions: co-precipitated protein Ddb1 (DDB1_MOUSE). Put shortly:
as §1

Assay [4] concerns the target T4, MLO-Y4 cell surface proteins (Mus musculus, UniProt P97360).
T4 construct: endogenous in cells; host or cells: MLO-Y4
T4 sequence (P97360 1-485): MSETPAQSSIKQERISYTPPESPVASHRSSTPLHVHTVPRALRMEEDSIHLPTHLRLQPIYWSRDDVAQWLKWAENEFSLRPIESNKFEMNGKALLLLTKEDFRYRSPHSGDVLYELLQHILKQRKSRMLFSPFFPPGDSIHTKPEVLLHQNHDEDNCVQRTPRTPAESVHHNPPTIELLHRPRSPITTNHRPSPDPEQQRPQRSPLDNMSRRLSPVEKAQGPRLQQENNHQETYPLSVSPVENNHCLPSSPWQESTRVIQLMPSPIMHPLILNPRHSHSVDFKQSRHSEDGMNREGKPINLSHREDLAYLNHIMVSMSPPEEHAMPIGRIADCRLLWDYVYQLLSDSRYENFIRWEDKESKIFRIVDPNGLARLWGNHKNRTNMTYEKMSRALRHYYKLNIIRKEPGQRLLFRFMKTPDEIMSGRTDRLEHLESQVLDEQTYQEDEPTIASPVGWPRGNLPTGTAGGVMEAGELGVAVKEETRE
As to conditions: co-precipitated protein Etv6 (ETV6_MOUSE). The method in brief:
as §1

T3 sequence (Q3U1J4 whole entry): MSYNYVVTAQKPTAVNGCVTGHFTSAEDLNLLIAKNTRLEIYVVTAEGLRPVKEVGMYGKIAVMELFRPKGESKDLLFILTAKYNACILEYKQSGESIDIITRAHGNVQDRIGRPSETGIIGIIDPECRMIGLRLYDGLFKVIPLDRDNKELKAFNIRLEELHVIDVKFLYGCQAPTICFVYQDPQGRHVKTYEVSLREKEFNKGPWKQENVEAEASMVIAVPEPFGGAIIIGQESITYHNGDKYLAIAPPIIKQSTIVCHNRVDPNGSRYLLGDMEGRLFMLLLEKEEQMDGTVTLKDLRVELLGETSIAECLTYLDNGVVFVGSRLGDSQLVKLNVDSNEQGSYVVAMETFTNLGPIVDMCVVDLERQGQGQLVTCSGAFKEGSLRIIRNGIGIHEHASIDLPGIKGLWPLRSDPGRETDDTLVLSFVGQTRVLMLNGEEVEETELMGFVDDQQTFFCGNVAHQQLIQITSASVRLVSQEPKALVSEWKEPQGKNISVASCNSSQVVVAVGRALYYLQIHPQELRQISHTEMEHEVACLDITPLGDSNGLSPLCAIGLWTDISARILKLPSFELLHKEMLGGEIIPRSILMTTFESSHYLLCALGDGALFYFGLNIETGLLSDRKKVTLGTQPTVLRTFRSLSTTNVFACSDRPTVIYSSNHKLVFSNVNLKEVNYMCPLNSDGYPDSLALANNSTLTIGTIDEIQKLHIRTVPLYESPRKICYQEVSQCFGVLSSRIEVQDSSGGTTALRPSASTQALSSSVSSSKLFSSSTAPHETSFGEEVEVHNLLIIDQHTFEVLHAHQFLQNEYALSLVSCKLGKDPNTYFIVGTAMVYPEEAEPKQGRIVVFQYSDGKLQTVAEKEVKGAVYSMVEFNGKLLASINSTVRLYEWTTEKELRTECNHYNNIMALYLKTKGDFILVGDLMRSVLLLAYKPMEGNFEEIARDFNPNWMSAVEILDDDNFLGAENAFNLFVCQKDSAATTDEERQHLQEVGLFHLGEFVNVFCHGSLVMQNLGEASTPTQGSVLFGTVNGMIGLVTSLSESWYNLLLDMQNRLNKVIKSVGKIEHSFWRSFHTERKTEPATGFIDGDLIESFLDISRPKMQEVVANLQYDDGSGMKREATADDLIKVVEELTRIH

B1: irisin: secreted cleaved form of FNDC5; recombinant human/mouse irisin with C-terminal his tag produced in HEK293 cells (protein)
chain: DSPSAPVNVTVRHLKANSAVVSWDVLEDEVVIGFAISQQKKDVRMLRFIQEVNTTTRSCALWDLEEDTEYIVHVQAISIQGQSPASEPVLFKTPREAEKMASKNKDEVTMKE
modifications: left off: small tags and cut ends
notes: secreted cleaved form of FNDC5; recombinant human/mouse irisin with C-terminal his tag produced in HEK293 cells
As to B1, the TMT signal-to-noise ratio in assay [1] is recorded as 858.89; in assay [2] it was 229.372; in assay [3] it was 149.943; in assay [4], 74.6472. In addition, the “irisin/adipsin TMT signal-to-noise ratio” value in assay [1] stood at 0.336; in assay [2] it was 0.505; in assay [3], 0.352; in assay [4], 0.544.

Values taken from patent US20210063414A1, “METHODS FOR PREVENTING AND/OR TREATING BONE LOSS CONDITIONS BY MODULATING IRISIN” (Dana-Farber Cancer Institute, Inc., priority 2018, published 2021).
